Columns and labels:
[1] = target: histone H3 peptide (residues 1-24) with H3K9me3, plus a C-terminal tryptophan (UniProt P68431 2-25, trimethyl-lysine at K9); experiment: cell-based or functional assay
[2] = target: T1, heterochromatin protein 1 (HP1), full length, residues 1-266 (Neurospora crassa, UniProt Q1K612 1-266); experiment: cell-based or functional assay
T1 sequence (looked up): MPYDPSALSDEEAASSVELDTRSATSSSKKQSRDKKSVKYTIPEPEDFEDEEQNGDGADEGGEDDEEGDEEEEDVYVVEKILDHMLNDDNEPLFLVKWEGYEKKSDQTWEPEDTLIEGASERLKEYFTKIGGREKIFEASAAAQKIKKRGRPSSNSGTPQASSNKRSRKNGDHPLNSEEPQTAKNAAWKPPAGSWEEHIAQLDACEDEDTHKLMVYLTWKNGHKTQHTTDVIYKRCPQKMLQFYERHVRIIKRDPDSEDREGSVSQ

B1: DIM2 (Defective-In-Methylation-2) N-terminal fragment, residues 1-1242, wild type (domain or fragment, Neurospora crassa, UniProt Q3Y3Z1 1-1242, looked up)
chain: MDSPDRSHGGMFIDVPAETMGFQEDYLDMFASVLSQGLAKEGDYAHHQPLPAGKEECLEPIAVATTITPSPDDPQLQLQLELEQQFQTESGLNGVDPAPAPESEDEADLPDGFSDESPDDDFVVQRSKHITVDLPVSTLINPRSTFQRIDENDNLVPPPQSTPERVAVEDLLKAAKAAGKNKEDYIEFELHDFNFYVNYAYHPQEMRPIQLVATKVLHDKYYFDGVLKYGNTKHYVTGMQVLELPVGNYGASLHSVKGQIWVRSKHNAKKEIYYLLKKPAFEYQRYYQPFLWIADLGKHVVDYCTRMVERKREVTLGCFKSDFIQWASKAHGKSKAFQNWRAQHPSDDFRTSVAANIGYIWKEINGVAGAKRAAGDQLFRELMIVKPGQYFRQEVPPGPVVTEGDRTVAATIVTPYIKECFGHMILGKVLRLAGEDAEKEKEVKLAKRLKIENKNATKADTKDDMKNDTATESLPTPLRSLPVQVLEATPIESDIVSIVSSDLPPSENNPPPLTNGSVKPKAKANPKPKPSTQPLHAAHVKYLSQELVNKIKVGDVISTPRDDSSNTDTKWKPTDTDDHRWFGLVQRVHTAKTKSSGRGLNSKSFDVIWFYRPEDTPCCAMKYKWRNELFLSNHCTCQEGHHARVKGNEVLAVHPVDWFGTPESNKGEFFVRQLYESEQRRWITLQKDHLTCYHNQPPKPPTAPYKPGDTVLATLSPSDKFSDPYEVVEYFTQGEKETAFVRLRKLLRRRKVDRQDAPANELVYTEDLVDVRAERIVGKCIMRCFRPDERVPSPYDRGGTGNMFFITHRQDHGRCVPLDTLPPTLRQGFNPLGNLGKPKLRGMDLYCGGGNFGRGLEEGGVVEMRWANDIWDKAIHTYMANTPDPNKTNPFLGSVDDLLRLALEGKFSDNVPRPGEVDFIAAGSPCPGFSLLTQDKKVLNQVKNQSLVASFASFVDFYRPKYGVLENVSGIVQTFVNRKQDVLSQLFCALVGMGYQAQLILGDAWAHGAPQSRERVFLYFAAPGLPLPDPPLPSHSHYRVKNRNIGFLCNGESYVQRSFIPTAFKFVSAGEGTADLPKIGDGKPDACVRFPDHRLASGITPYIRAQYACIPTHPYGMNFIKAWNNGNGVMSKSDRDLFPSEGKTRTSDASVGWKRLNPKTLFPTVTTTSNPSDARMGPGLHWDEDRPYTVQEMRRAQGYLDEEVLVGRTTDQWKLVGNSVSRHMALAIGLKFREAWLGTLYD
- in vitro DNA methylation of a 36-mer duplex by DIM2 with HP1 and H3K9me3 peptide, against the DIM2-HP1 mixture [1]: ~90 fold

B2: DIM2 (residues 1-1242) L134A/L139A double mutant (domain or fragment, Neurospora crassa, UniProt Q3Y3Z1 1-1242, looked up)
chain: MDSPDRSHGGMFIDVPAETMGFQEDYLDMFASVLSQGLAKEGDYAHHQPLPAGKEECLEPIAVATTITPSPDDPQLQLQLELEQQFQTESGLNGVDPAPAPESEDEADLPDGFSDESPDDDFVVQRSKHITVDAPVSTAINPRSTFQRIDENDNLVPPPQSTPERVAVEDLLKAAKAAGKNKEDYIEFELHDFNFYVNYAYHPQEMRPIQLVATKVLHDKYYFDGVLKYGNTKHYVTGMQVLELPVGNYGASLHSVKGQIWVRSKHNAKKEIYYLLKKPAFEYQRYYQPFLWIADLGKHVVDYCTRMVERKREVTLGCFKSDFIQWASKAHGKSKAFQNWRAQHPSDDFRTSVAANIGYIWKEINGVAGAKRAAGDQLFRELMIVKPGQYFRQEVPPGPVVTEGDRTVAATIVTPYIKECFGHMILGKVLRLAGEDAEKEKEVKLAKRLKIENKNATKADTKDDMKNDTATESLPTPLRSLPVQVLEATPIESDIVSIVSSDLPPSENNPPPLTNGSVKPKAKANPKPKPSTQPLHAAHVKYLSQELVNKIKVGDVISTPRDDSSNTDTKWKPTDTDDHRWFGLVQRVHTAKTKSSGRGLNSKSFDVIWFYRPEDTPCCAMKYKWRNELFLSNHCTCQEGHHARVKGNEVLAVHPVDWFGTPESNKGEFFVRQLYESEQRRWITLQKDHLTCYHNQPPKPPTAPYKPGDTVLATLSPSDKFSDPYEVVEYFTQGEKETAFVRLRKLLRRRKVDRQDAPANELVYTEDLVDVRAERIVGKCIMRCFRPDERVPSPYDRGGTGNMFFITHRQDHGRCVPLDTLPPTLRQGFNPLGNLGKPKLRGMDLYCGGGNFGRGLEEGGVVEMRWANDIWDKAIHTYMANTPDPNKTNPFLGSVDDLLRLALEGKFSDNVPRPGEVDFIAAGSPCPGFSLLTQDKKVLNQVKNQSLVASFASFVDFYRPKYGVLENVSGIVQTFVNRKQDVLSQLFCALVGMGYQAQLILGDAWAHGAPQSRERVFLYFAAPGLPLPDPPLPSHSHYRVKNRNIGFLCNGESYVQRSFIPTAFKFVSAGEGTADLPKIGDGKPDACVRFPDHRLASGITPYIRAQYACIPTHPYGMNFIKAWNNGNGVMSKSDRDLFPSEGKTRTSDASVGWKRLNPKTLFPTVTTTSNPSDARMGPGLHWDEDRPYTVQEMRRAQGYLDEEVLVGRTTDQWKLVGNSVSRHMALAIGLKFREAWLGTLYD
- in vitro DNA methylation of (CTA)12/(TAG)12 duplex with HP1 and H3(1-24)K9me3 peptide; reduction against WT DIM2 [2]: 14 fold

B3: DIM2 (residues 1-1242) R1104A mutant (domain or fragment, Neurospora crassa, UniProt Q3Y3Z1 1-1242, looked up)
chain: MDSPDRSHGGMFIDVPAETMGFQEDYLDMFASVLSQGLAKEGDYAHHQPLPAGKEECLEPIAVATTITPSPDDPQLQLQLELEQQFQTESGLNGVDPAPAPESEDEADLPDGFSDESPDDDFVVQRSKHITVDLPVSTLINPRSTFQRIDENDNLVPPPQSTPERVAVEDLLKAAKAAGKNKEDYIEFELHDFNFYVNYAYHPQEMRPIQLVATKVLHDKYYFDGVLKYGNTKHYVTGMQVLELPVGNYGASLHSVKGQIWVRSKHNAKKEIYYLLKKPAFEYQRYYQPFLWIADLGKHVVDYCTRMVERKREVTLGCFKSDFIQWASKAHGKSKAFQNWRAQHPSDDFRTSVAANIGYIWKEINGVAGAKRAAGDQLFRELMIVKPGQYFRQEVPPGPVVTEGDRTVAATIVTPYIKECFGHMILGKVLRLAGEDAEKEKEVKLAKRLKIENKNATKADTKDDMKNDTATESLPTPLRSLPVQVLEATPIESDIVSIVSSDLPPSENNPPPLTNGSVKPKAKANPKPKPSTQPLHAAHVKYLSQELVNKIKVGDVISTPRDDSSNTDTKWKPTDTDDHRWFGLVQRVHTAKTKSSGRGLNSKSFDVIWFYRPEDTPCCAMKYKWRNELFLSNHCTCQEGHHARVKGNEVLAVHPVDWFGTPESNKGEFFVRQLYESEQRRWITLQKDHLTCYHNQPPKPPTAPYKPGDTVLATLSPSDKFSDPYEVVEYFTQGEKETAFVRLRKLLRRRKVDRQDAPANELVYTEDLVDVRAERIVGKCIMRCFRPDERVPSPYDRGGTGNMFFITHRQDHGRCVPLDTLPPTLRQGFNPLGNLGKPKLRGMDLYCGGGNFGRGLEEGGVVEMRWANDIWDKAIHTYMANTPDPNKTNPFLGSVDDLLRLALEGKFSDNVPRPGEVDFIAAGSPCPGFSLLTQDKKVLNQVKNQSLVASFASFVDFYRPKYGVLENVSGIVQTFVNRKQDVLSQLFCALVGMGYQAQLILGDAWAHGAPQSRERVFLYFAAPGLPLPDPPLPSHSHYRVKNRNIGFLCNGESYVQRSFIPTAFKFVSAGEGTADLPKIGDGKPDACVRFPDHRLASGITPYIAAQYACIPTHPYGMNFIKAWNNGNGVMSKSDRDLFPSEGKTRTSDASVGWKRLNPKTLFPTVTTTSNPSDARMGPGLHWDEDRPYTVQEMRRAQGYLDEEVLVGRTTDQWKLVGNSVSRHMALAIGLKFREAWLGTLYD
- in vitro DNA methylation: activity-stimulation effect of HP1, reduction against WT DIM2 [2]: ~8 fold
- thermal shift assay: change of the Tm of DIM2 on co-incubation with HP1 [2]: 2.5 °C

From paper PMC11315935, “Multi-layered heterochromatin interaction as a switch for DIM2-mediated DNA methylation” (Nature Communications, 2024)
